Like-named read-outs stand apart in the source and are kept apart here. Positions of bridges follow the written chain, without caps; N, C: chain ends. Residues, ends and D or L forms follow the SMILES beside them. *: point of attachment. X1 = O=C(O)c1ccc(-c2c3nc(c(-c4ccc(C(=O)O)cc4)c4ccc([nH]4)c(-c4ccc(C(=O)*)cc4)c4nc(c(-c5ccc(C(=O)O)cc5)c5ccc2[nH]5)C=C4)C=C3)cc1; X2 = O=C(O)C/C(=C/C(=O)*)C(=O)O
Assays:
[1] = system: EJ tumor tissues; assay: Tumor ROS content detection; format: in vivo, BALB/c nude mice; details: 8 mg/kg i.v., versus PBS, Gi-F and Gi-F-SA
Protocol: EJ tumor tissues were collected under euthanasia at the end of treatment and washed with PBS for 3 times. Next, DCFH-DA fluorescence staining was carried out by Wuhan Servicebio Technology Co., Ltd.

[2] = system: MCF-7/MDR xenograft tumors; assay: In vivo antitumor evaluation in MCF-7/MDR xenografted model
Text: Female BALB/c nude mice (~8 weeks, 18 g) were subcutaneously inoculated with 5 × 10^6 MCF-7/MDR cells resuspended in Matrigel. […] Individual tumor volume and bodyweight of mouse after different treatment was collected at 2-days intervals for analysis. Mice were killed at 20 days post treatment unless endpoints were exceeded. Moreover, tumors from all groups were harvested under euthanasia and weighed for analysis at the end of treatment.

[3] = system: EJ cells; assay: Intracellular ROS detection (DCFH-DA); format: cell-based; details: pH 6.5, 40 μM, 8 h
Protocol: Initially, EJ cells (5 × 10^5) were cultured in confocal dish with a CO2 incubator overnight at 37 °C. […] Afterwards, EJ cells were washed with PBS for 3 times and replaced with culture mediums.

[4] = for Plasma Drug concentration: fluorescence; for Tumor Drug concentration: tumor lysate fluorescence
Protocol: Moreover, ex vivo fluorescence imaging of tumor and major organs was performed to investigate the dose-dependent tumor accumulation of Gi-F-CAA (Fig. 3e and Supplementary Fig. 25). […] Subsequently, time-dependent in vivo fluorescence imaging of EJ xenograft mice was conducted to investigate the in vivo biodistribution and metabolism of Gi-F-CAA after administrated with Gi-F-CAA (8 mg/kg in 100 μL PBS). […] Representative time-dependent fluorescence images of tumor tissue lysates and plasma were acquired after intravenous administration with Gi-F-CAA (8 mg/kg in 100 μL PBS) (Fig. 3h).
Firstly, A density of 5 × 10^6 EJ cell resuspended in Matrigel were subcutaneously injected into the right hind of mice to construct EJ xenograft model. When the tumor volume reached about 200–400 mm^3, the mice were administrated with Cy labeled Gi-F (8 mg/kg in 100 μL PBS), Cy labeled Gi-F-SA (8 mg/kg in 100 μL PBS) and Cy labeled Gi-F-CAA (8 mg/kg in 100 μL PBS) by intravenous injection for in vivo fluorescence imaging at different timepoints (10 min, 20 min, 40 min, 1 h, 2 h, 4 h, 8 h, 12 h and 24 h) with in vivo imaging system (IVIS). Meanwhile, the EJ xenograft mice were sacrificed for collecting major organs and tumors to evaluate the biodistribution of Gi-F-CAA.

[5] = EJ xenograft mice, i.v. 8 mg/kg, 0.017 h, mice 1
[6] = EJ xenograft mice, i.v. 8 mg/kg, 0.017 h, mice 2
[7] = EJ xenograft mice, i.v. 8 mg/kg, 0.017 h, mice 3
[8] = EJ xenograft mice, i.v. 8 mg/kg, 0.083 h, mice 1
[9] = EJ xenograft mice, i.v. 8 mg/kg, 0.083 h, mice 2
[10] = EJ xenograft mice, i.v. 8 mg/kg, 0.083 h, mice 3
[11] = EJ xenograft mice, i.v. 8 mg/kg, 0.167 h, mice 1
[12] = EJ xenograft mice, i.v. 8 mg/kg, 0.167 h, mice 2
[13] = EJ xenograft mice, i.v. 8 mg/kg, 0.167 h, mice 3
[14] = EJ xenograft mice, i.v. 8 mg/kg, 0.25 h, mice 1
[15] = EJ xenograft mice, i.v. 8 mg/kg, 0.25 h, mice 2
[16] = EJ xenograft mice, i.v. 8 mg/kg, 0.25 h, mice 3
[17] = EJ xenograft mice, i.v. 8 mg/kg, 0.5 h, mice 1
[18] = EJ xenograft mice, i.v. 8 mg/kg, 0.5 h, mice 2
[19] = EJ xenograft mice, i.v. 8 mg/kg, 0.5 h, mice 3
[20] = EJ xenograft mice, i.v. 8 mg/kg, 0.75 h, mice 1
[21] = EJ xenograft mice, i.v. 8 mg/kg, 0.75 h, mice 2
[22] = EJ xenograft mice, i.v. 8 mg/kg, 0.75 h, mice 3
[23] = EJ xenograft mice, i.v. 8 mg/kg, 1 h, mice 1
[24] = EJ xenograft mice, i.v. 8 mg/kg, 1 h, mice 2
[25] = EJ xenograft mice, i.v. 8 mg/kg, 1 h, mice 3
[26] = EJ xenograft mice, i.v. 8 mg/kg, 2 h, mice 1
[27] = EJ xenograft mice, i.v. 8 mg/kg, 2 h, mice 2
[28] = EJ xenograft mice, i.v. 8 mg/kg, 2 h, mice 3
[29] = EJ xenograft mice, i.v. 8 mg/kg, 4 h, mice 1
[30] = EJ xenograft mice, i.v. 8 mg/kg, 4 h, mice 2
[31] = EJ xenograft mice, i.v. 8 mg/kg, 4 h, mice 3
[32] = EJ xenograft mice, i.v. 8 mg/kg, 8 h, mice 1
[33] = EJ xenograft mice, i.v. 8 mg/kg, 8 h, mice 2
[34] = EJ xenograft mice, i.v. 8 mg/kg, 8 h, mice 3
[35] = EJ xenograft mice, i.v. 8 mg/kg, 12 h, mice 1
[36] = EJ xenograft mice, i.v. 8 mg/kg, 12 h, mice 2
[37] = EJ xenograft mice, i.v. 8 mg/kg, 12 h, mice 3
[38] = EJ xenograft mice, i.v. 8 mg/kg, 24 h, mice 1
[39] = EJ xenograft mice, i.v. 8 mg/kg, 24 h, mice 2
[40] = EJ xenograft mice, i.v. 8 mg/kg, 24 h, mice 3

CC(C)C[C@H](NC(=O)c1ccc(-c2c3nc(c(-c4ccc(C(=O)O)cc4)c4ccc([nH]4)c(-c4ccc(C(=O)O)cc4)c4nc(c(-c5ccc(C(=O)O)cc5)c5ccc2[nH]5)C=C4)C=C3)cc1)C(=O)N[C@@H](CCCCNC(=O)/C=C(/CC(=O)O)C(=O)O)C(=O)N[C@@H](CC(C)C)C(=O)N[C@@H](CCCCN)C(=O)N[C@@H](CC(C)C)C(=O)N[C@@H](CCCCNC(=O)/C=C(/CC(=O)O)C(=O)O)C(=O)NCC(=O)N[C@@H](C)C(=O)N[C@H]1CSSC[C@@H](C(=O)N2CCC[C@H]2C(=O)N[C@H](C(=O)O)C(C)C)NC(=O)[C@@H]2CCCN2C(=O)[C@H](Cc2ccc(O)cc2)NC(=O)[C@H](CC(C)C)NC(=O)[C@@H]2CCCN2C(=O)[C@H](CC(C)C)NC(=O)[C@H](Cc2c[nH]c3ccccc23)NC(=O)[C@H](CC(N)=O)NC1=O [Gi-F-CAA] (X1-LK(X2)LKLK(X2)GACNWLPLYPCPV-OH; disulfide 9-17; C-terminus assumed)
ROS levels of tumor tissues [1]: elevation
mean tumor volume at 20 days post injection ([2]; MCF-7/MDR xenograft, six i.v. injections every 2 days, Gi-F-CAA 8 mg/kg, DOX and CPT 3 mg/kg, n = 6): 623 mm^3
TGI rate ([2]; MCF-7/MDR xenograft, six i.v. injections, Gi-F-CAA 8 mg/kg, DOX and CPT 3 mg/kg, 20 days): 66%
Tumor weight ([2]; mice 1): 0.59 g
Tumor weight ([2]; mice 2): 0.52 g
Tumor weight ([2]; mice 3): 0.51 g
Tumor weight ([2]; mice 4): 0.35 g
Tumor weight ([2]; mice 5): 0.37 g
Tumor weight ([2]; mice 6): 0.54 g
intracellular ROS (DCFH-DA) [3]: Apparent green fluorescence
blood circulation half-life (t1/2) ([4]; EJ xenograft mice, i.v. 8 mg/kg in 100 μL PBS, plasma fluorescence, n = 3 mice): 1.03 ± 0.192 h
Plasma Drug concentration [4, 5]: 33.86 µM
Plasma Drug concentration [4, 6]: 27.32 µM
Plasma Drug concentration [4, 7]: 28.25 µM
Plasma Drug concentration [4, 8]: 31.76 µM
Plasma Drug concentration [4, 9]: 25.29 µM
Plasma Drug concentration [4, 10]: 26.44 µM
Plasma Drug concentration [4, 11]: 24.34 µM
Plasma Drug concentration [4, 12]: 19.45 µM
Plasma Drug concentration [4, 13]: 20.15 µM
Plasma Drug concentration [4, 14]: 19.65 µM
Plasma Drug concentration [4, 15]: 15.52 µM
Plasma Drug concentration [4, 16]: 16.27 µM
Plasma Drug concentration [4, 17]: 15.69 µM
Plasma Drug concentration [4, 18]: 12.64 µM
Plasma Drug concentration [4, 19]: 13.24 µM
Plasma Drug concentration [4, 20]: 14.64 µM
Plasma Drug concentration [4, 21]: 11.89 µM
Plasma Drug concentration [4, 22]: 12.38 µM
Plasma Drug concentration [4, 23]: 13.02 µM
Plasma Drug concentration [4, 24]: 10.61 µM
Plasma Drug concentration [4, 25]: 11.06 µM
Plasma Drug concentration [4, 26]: 7.79 µM
Plasma Drug concentration [4, 27]: 8.53 µM
Plasma Drug concentration [4, 28]: 9.07 µM
Plasma Drug concentration [4, 29]: 6.64 µM
Plasma Drug concentration [4, 30]: 6.59 µM
Plasma Drug concentration [4, 31]: 6.96 µM
Plasma Drug concentration [4, 32]: 3.65 µM
Plasma Drug concentration [4, 33]: 4.12 µM
Plasma Drug concentration [4, 34]: 4.41 µM
Plasma Drug concentration [4, 35]: 2.66 µM
Plasma Drug concentration [4, 36]: 3.28 µM
Plasma Drug concentration [4, 37]: 3.5 µM
Plasma Drug concentration [4, 38]: 1.38 µM
Plasma Drug concentration [4, 39]: 1.99 µM
Plasma Drug concentration [4, 40]: 2.17 µM
Tumor Drug concentration [4, 5]: 11.93 µM
Tumor Drug concentration [4, 6]: 13.59 µM
Tumor Drug concentration [4, 7]: 9.61 µM
Tumor Drug concentration [4, 8]: 13.61 µM
Tumor Drug concentration [4, 9]: 15.1 µM
Tumor Drug concentration [4, 10]: 10.98 µM
Tumor Drug concentration [4, 11]: 14.15 µM
Tumor Drug concentration [4, 12]: 15.1 µM
Tumor Drug concentration [4, 13]: 11.74 µM
Tumor Drug concentration [4, 14]: 15.43 µM
Tumor Drug concentration [4, 15]: 16.04 µM
Tumor Drug concentration [4, 16]: 12.46 µM
Tumor Drug concentration [4, 17]: 17.54 µM
Tumor Drug concentration [4, 18]: 16.74 µM
Tumor Drug concentration [4, 19]: 14.43 µM
Tumor Drug concentration [4, 20]: 16.03 µM
Tumor Drug concentration [4, 21]: 16.19 µM
Tumor Drug concentration [4, 22]: 13.02 µM
Tumor Drug concentration [4, 23]: 14.49 µM
Tumor Drug concentration [4, 24]: 15.3 µM
Tumor Drug concentration [4, 25]: 11.94 µM
Tumor Drug concentration [4, 26]: 12.9 µM
Tumor Drug concentration [4, 27]: 13.97 µM
Tumor Drug concentration [4, 28]: 10.6 µM
Tumor Drug concentration [4, 29]: 10.23 µM
Tumor Drug concentration [4, 30]: 11.8 µM
Tumor Drug concentration [4, 31]: 8.38 µM
Tumor Drug concentration [4, 32]: 7.25 µM
Tumor Drug concentration [4, 33]: 8.28 µM
Tumor Drug concentration [4, 34]: 6.04 µM
Tumor Drug concentration [4, 35]: 5.72 µM
Tumor Drug concentration [4, 36]: 6.55 µM
Tumor Drug concentration [4, 37]: 4.61 µM
Tumor Drug concentration [4, 38]: 4.93 µM
Tumor Drug concentration [4, 39]: 5.65 µM
Tumor Drug concentration [4, 40]: 3.95 µM
tumor tissue lysate signal relative to plasma ([4]; i.v. 8 mg/kg, from 1 h to 24 h): about 3 fold
level at time molar ([4]; mouse, in vivo, iv, 8 mg/kg): 16.2 µM
